Assay results published in the nanobody polyreactivity screen of Harvey et al. (2022).

assay: yeast display, Sf9 membrane polyspecificity reagent, FACS + sequencing; frameworks hold sequencing errors
Procedure, shortened: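 Synthetic nanobody libraries on Saccharomyces cerevisiae BJ5465 were galactose-induced for 36–48 hours, stained 1 hour at 4 °C with 10% biotinylated, detergent-solubilized Sf9 membrane reagent and enriched on streptavidin microbeads. FACS then separated cells into low and high (top ~1%) gates by anti-HA (expression) and streptavidin (reagent binding) fluorescence. Genes were colony-PCR amplified, MiSeq 2 × 250 sequenced and CDR-length filtered. A clone's polyreactivity label is that of its gate of origin.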

Row | Sequence | polyreactivity (PSR sort gate)
1 | QDQLVESGGGLVQAGGRLRLSCAASGRTFYWNAMGWNRQAPGKEREMVAAITRGGSTTYADSVKGRFTISRDNAKNTVYLQMNSLKPEDTAVYYCNKVYSLWPGYRYDYWGQGTQVTVSS | high polyreactivity
2 | QDQLVESGGGLVQAGGRLRLSCAASGSIFLKYSMGWYRQAPGKVRELVAVISQSGGRTYYADSVKGRFTISRDNAKNTVYLQMNILKPEETAVYYCNVDISWLRRKFDYWGQGTQVTVSS | low polyreactivity
3 | QDQLVESGGGLVQAGGSLGLSCAASGLTFSYYAMAWYRQAPGKERELVAAIDYSGGTTYADSVKGRFTISRDNAKNTVYLQMNSLKPEDTAVYYCADAPDGWFASGDEYWGQGTQVTVSS | high polyreactivity
4 | QDQLVESGGGLVQAGGSLPLSCAASGFTYSSYAMGWYRHAPGKERELVATISRSGSTTYYADSVKGRFTISRDNAKNTVYFQMNSLKPEDTAVYYCAKAYYPGGYWGQGTQVTVSS | high polyreactivity
5 | QDQLVESGGGLVQAGGSLRISCAASGFTFDENAMGWYRQAPGINYSGASTYYADSVKGRFTISRDNAKNTVYLQMYSLKPEDTAVYYCAAEVVALMNYWGQGSQVTVSS | low polyreactivity
6 | QDQLVESGGGLVQAGGSLRISCDASGTTFQTYVMGWYRQAPGKERELVAAISSGGSTNYADSVKGRFTISRDNAKNTVYLQMNSLKPEDTAVYYCAKRWPYFRRGKDGYWGQGTQVTVSS | low polyreactivity
7 | QDQLVESGGGLVQAGGSLRLICAASGGIFLVYTMGWYRQAPGKERELVAAITSGGSTKYADSVKGRFTISRDNAKNTVYLQMNSLKPEDTAVYYCAAYRRSWRYPSVRYYKYDYWGQGTQVTVSS | high polyreactivity
8 | QDQLVESGGGLVQAGGSLRLICAASGNTLGYYAMVCYRQATGKERELVATISDDGTTYYADSVKGLFTISRDNAKNSVYLQMNSLKPEDTAVYYCATDGSAQYSMDYWGQGTQVTVSS | low polyreactivity
9 | QDQLVESGGGLVQAGGSLRLICAASGSILSGYAMGWYRQAPGKERELVAAITSGGDTNYADSVKGRFTISRDNAKNTVYLQMNSLKPEDTAVYYCNRRGDFRIAYYDPMDYWGQGTQVTVSS | low polyreactivity
10 | QDQLVESGGGLVQAGGSLRLICAASGSTFDSYAMGWYRQAPGKERELVAAITRSVGSTYYADSVKGRFTISRDNAKYTVYLLMKSLKPEDTAVYYCAARGEWAIYVEFDYWGQGTQVTVSS | low polyreactivity
11 | QDQLVESGGGLVQAGGSLRLICAASGSTFEYNAMGWSRHAPGKERELVASSTNYADSVKGRFTISRDNAKNTVYLQMNSLIPEDTAVYYCAREHGVNRNHDYWGQGTQVTVSS | low polyreactivity
12 | QDQLVESGGGLVQAGGSLRLICASSGSNFESNTMGWYRQAPGKERELLAAINWSGGRTYYADSVKGRFSISRDNAKNTVYLQINSLKPEDTAVYYCATGTYSDYKLGQQLWGRYNYWGQGTQVSVSS | high polyreactivity
13 | QDQLVESGGGLVQAGGSLRLISAASGSTFRKYAMGWYRQAPGKEREFVAASTKRGGSTYYADSVKGRFTISRDNAKNTVYLLLNSLKPEDTAVYYCAAYKQDIGYYWGQGTQVTVSS | high polyreactivity
14 | QDQLVESGGGLVQAGGSLRLSCAASGATYRNNAMGWYRQAPGKERELVAAISRGGGSTYYADSVNGRFTISRDNAKNNVYLQMNSLKPEDTAVYYCARRPTGIYDYWGQGTQVTVSS | high polyreactivity
15 | QDQLVESGGGLVQAGGSLRLSCAASGFIFDTYAMGWYRQAPGKERELVAVISSGGSTYYADSVKGRFTISRDNAKNTVYLQMNSLKPEDTAVYYCAADSGYLGIYGDEYSWGQGTQVTVSS | low polyreactivity
16 | QDQLVESGGGLVQAGGSLRLSCAASGFIFWRNTMGWYRQAPGKERELVAVITRGGSTYYADSVKGRFTISRDNAKNTVYLQMNSLKPEDTAVYYCAALNDYYKTFSGYDYWGQGTQVTVSS | low polyreactivity
17 | QDQLVESGGGLVQAGGSLRLSCAASGFTFAGYAMGWYRQAPGKERELVAAITYSGGRTYYADSVKGRFTISRDNAKNTVYLQMNSLKPEDTAVYYCAARNYRYPGRYVYWGQGTQVTVSS | high polyreactivity
